# Data: the DeepSol protein solubility set
# Experiment: soluble on expression in E. coli; label from the status in PepcDB or PDB records
row,Sequence,soluble on expression in E. coli
1,RLSDTLMKQALSSVITQEKKRLKSQPKSIAQDIQPPNSMIKNALDEKDSHPFGDCFSDDEFLAIHLYTSCLYRPINHHLRYAPKNDVAPVVEAMNSGLAKLAQYPDYQVSGQLHRGIKQKMDDGEVMSRFKPGNTYRDDAFMSTSTRMDVTEEFTSDVTLHLQSSSAVNIGPFSKNPYEDEALIPPLTPFKVTGLHKQDDRWHVHLNEIAESSDE,not soluble
2,MKAFILAAGSGERLEPITHTRPKAFVPILSKPLIEYQIEYLRKCGIRDITVIVSSKNKEYFEKKLKEISIVTQKDDIKGTGAAILSAKFNDEALIIYGDLFFSNEKEICNIITLKENAIIGVKVSNPKDYGVLVLDNQNNLSKIIEKPEIPPSNLINAGIYKLNSDIFTYLDKISISERGELELTDAINLMAKDHRVKVIEYEGYWMDIGKPWNIIDVNKWALDNLVFSQNLGNVEDNVKIKGKVIIEEDAEIKSGTYIEGPVYIGKGSEIGPNSYLRPYTILVEKNKIGASVEVKESVIMEGSKIPHLSYVGDSVIAEDVNFGAGTLIANLRFDEKEVKVNVKGKRISSGRRKLGAFIGGHVRTGINVTILPGVKIGAYARIYPGAVVNRDVGYGEFFKV,soluble
3,DVQLLESGPGLVAPSQSLSITCTVSGFSLTNYGVDWVRQPPGKGLEWVGVIWSGGSTNYNSALMSRLSISKDNSKSQVFLKMNSLQTDDTAVYYCAKHWGGYYIPYGMDHWGQGTTVTVSSASTKGPSVFPLAPSSKSTSGGTAALGCLVKDYFPEPVTVSWNSGALTSGVHTFPAVLQSSGLYSLSSVVTVPSSSLGTQTYICNVNHKPSNTKVDKKVEPKSCDKTHT,soluble
4,MSLEFLRDFGKTALIHQGNEISYAELLENIASFANLMDITPNERVGIVMENRPEWVYAFYGTWKKGGIVVPIDFMSTPQEIRYILEDAEPSIIFCSDETYPRVREASEDLKVEIVNVDNLVLPTPWEGIVRRDEDDVAVLPYTSGTTGNPKGVMLTFKNLMSNIRGVSEVGIAGKEDKTLAILPFHHMYPLMTTMLLPLYLGATVVFLDKLTPEDIIEKLQKYQITVLIGVPRLYQLFHRRIMEEINKNVLAKNLFKLMKKVKNQKIRKTVFKKVHDAFGGRIKYMVSGGAKLPLDIAQDLTTLGFTVIEGYGLTETSPIVSFNPPNRIKLGSVGVPIKGVEVMTTSEGEIIVRGDNVMKGYWKKPEETQKVIINGWFYTGDLGEIDEEGYIYITGRKKEIIVLGSGKNVFPEEIESKILAKAPYIKEVGVFEKDGKLLALIYPDFEKVKELGITNLEETIKWEVIDKVNRELPEWKRVVGFKIVKTELPKTRLGKLRRFLLPQIYEKAEEIKEEKTEDYSVFETEEGRIIKEFLEKISQKEVKPGDHLEIDLGLDSLAKVELLGFIETNFGVSLSEEELSKNLVVKDLIELVRSKKKSVDTKEVSWKDILTKAKPYELYHYPLIFELGRKLLKLYFKLYHRIDVRGLENLPKPPFIIAPNHQSYLDAFAIAAVLPKEIAHETYFLGDETYFRNPITSTFGKLAHVITVNVNKGLKESLQKTAYALMSGKVVVIFPEGARTRTEELMEFKKGVAILARELGVPIVPVAIEGAYEAWSVYDKFPKPKKIKIMFGKPVDPDEKSYEEITKELYEWIKSMLEFLKKESEGHHHHHH,soluble
5,MPFVRPLVTVVRAGRHSYSAGLQLQQRLARSNQILNPPAEFRNYLVLQEHDPVYTVGLRTKDYTAQDEDRLRRLGADFHRTDRGGLITFHGPGQLVAYPILHLGQFVPSIRWYVATLERMVVEACHQMGISSAKATKDTGIWVGDNKICAIGIHGSRYVTTHGIGLNCCTDLQWFEHIVPCGIEGKGVTSLSKELDRHFPVEEASGALLNSFAKVFECRLQEHAKKPASSAEIG,not soluble
6,MKTPDQKSCETAESSNTKYSPNLVIDGAAVSNEDVAGKVADLEYAHSFPDLVLNVEKHDDEYIKSFLLQRNWYHGMMFGKAAEKLLKWESSYIVRRSMGPTHKFLCITARVEDKYFHFQFNWNSEGWSCPILYEKFPRIPVKRYEHIYQLLDAWSLVVNQLVPISRCSMILQHSSIALENQLGRGAFGEVIKAKYVPMGATVPTEVAVKRLIGDAKRPQLVDFCNEANIMTLLEHKNIVALYGFASLQQPIMLVIEFVPGGDLRKYLQRTPNVPSKQIIKFAMEIASGMKHLSSKNVIHRDLAARNCLITKELNVKISDFGLSVNESETKMKSLKKAPIRWLSPETFSKGLFNEKTDVWSYGVLLTELMTRCAHDPLWPKNLKQVQKWIKESEHPHKIEDGDPSELKEIVDACCAKIPSVRINFREVKNRLAMLQQKKKTLELDAQKPMSPNPAIEKKKSEDRRNNMDRRNKTNRKSHTSTDRTNSNNTLTRKKSRDAGKNDRSNERKNKAKGGNLSVDGTNKSSRRKEQKGAVGISQEMVTK,not soluble
7,MNMALISLAIDYKKSPIEVRSEFALSGLDVSMLYRSILAIDNVVHAVILSTCNRTEVYLEISDLRVVDDILVWWQGYVRNPNYKIKDYFKLRQGTEVIMHLMKLACGLESMVLGEPQILGQVKDSYTLSKKNHAIGKELDRVFQKVFATAKRVRSETRIGHCPVSVAFSAITLAKRQLDNISSKNVLIIGAGQTGELLFRHVTALAPKQIMLANRTIEKAQKITSAFRNASAHYLSELPQLIKKADIIIAAVNVLEYIVTCKYVGDKPRVFIDISIPQALDPKLGELEQNVYYCVDDINAVIEDNKDKRKYESSKAQKIIVKSLEEYLEKEKAIISNSAIKELFQKADGLVDLSLEKSLAKIRNGKDAEEIIKRFAYEIKKKVLHYPVVGMKEASKQGRSDCLVCMKRMFGLNVEK,not soluble
8,MSLALAIFDLDETLIHGDCASLWSEQMARLGWVDGKDFLRRDHELMEAYGRGHLQMEDYMAFSLEPIAGRTLEEVEHLVAPWVEEVIEPIIYGDACRCIAEHRKRGDRILIISASGTHLVGPIAARLGVDEYLAIELEAVNGVYTGKTHGVLTYREGKITRLLEWLDQEQENLEGASFYSDSRNDLPLLLRVDHPHVVNPDAVLREHAEINGWPTLSWSEGHHHHHH,soluble
9,MSANSKDRNQSNQDAKRQQQNFPKKISEGEADLYLDQYNFTTTAAIVSSVDRKIFVLLRDGRMLFGVLRTFDQYANLILQDCVERIYFSEENKYAEEDRGIFMIRGENVVMLGEVDIDKEDQPLEAMERIPFKEAWLTKQKNDEKRFKEETHKGKKMARHGIVYDFHKSDMY,not soluble
10,MGSDKIHHHHHHVSEALLEQAVSDVMPTKLAIIMRGLPGSGKSYWVEQFITSQGIEQAIHIRQHGLFSTDRYFYQQGQYRFNPQKIGQYHQANLTAFIQALARKEPIVICDNTNIAKWEFMAYEAAAKALGYQVKVVLVGQPDNDQHQQLCAQRNQHQVSLAHIQKMAQLFEE,not soluble
11,MLKRTRSLVCLCLAAAISSPTTYANSIDLPDIGTAAGGTLSIDQELIYGDAYMRMLRASKPIVNDPVINEYIDSLGHRLVANANDVKTPFHFFMIRDRNINAFAFFGGYVALHSGLFLHARSESELASVVAHEIAHVTQRHLARSMEDQARRSPATLAALAGALLLSIASPEAGMAAITAATAGNMQSQINYTRSNEKEADRFGIATLAKAGFDVQAMPRFFGRLADEYRYASKPPPMLLTHPLPEDRVADSRQRAQAYPPMRIAPSIDYHLARARIVARYAGIDGQAALGWFERTQKKASADIMPSFDYGRALVHLDNKRLSQAEPILKKLLAQDPGNPFYLDAMTDLYIEKKQPQKAVELLNSALKRNPQNKVLTINYANALLEANQNDQAVRTLQRYTHDNPEDSNGWQLLSKGYHALGRSDEELAARAEILALRANWNKAIQYYSEASKMAELGSLEQARYDARIDQLMIQRDRFMALQLEHHHHHH,soluble
12,MSLSSPNLSFYYNECERFESFLKNHHLHLESFHPYLEKAFFEMVLNGGKRFRPKLFLAVLCALVGQKDYSNQQTEYFKIALSIECLHTYSLIHDDLPCMDNAALRRNHPTLHAKYDETTAVLIGDALNTYSFELLSNALLESHIIVELIKILSANGGIKGMILGQALDCYFENTPLNLEQLTFLHEHKTAKLISASLIMGLVASGIKDEELFKWLQAFGLKMGLCFQVLDDIIDVTQDEEESGKTTHLDSAKNSFVNLLGLERANNYAQTLKTEVLNDLDALKPAYPLLQENLNALLNTLFKGEGHHHHHH,soluble
13,MGSDKIHHHHHHMAEAQLSLNLDIKHDASLSDFSGPGWMSIIDAVRQLHVGLIGQLYLFGSPATGKSHLLSAICESFIEMDKSAICLSLNELIHTDVNVLSSLENFSLIAIDDLEVIEQNSQWQEALFHLINRSREGQRQLLFAANKPASELPFQLRDLLTRLAQAPSFKVPTGHDLADREALLQSILRRRGWQFDERIANYLLTEGPHRIGAMMEVLNYIQPMFSNLGRSNISKAVIGDALRTIDEQTLAAELADIAQESQVDNDAADQDQHSQHTMPLDF,not soluble
